Test results: article PMC7797054, “Structural basis for inhibition of the type I-F CRISPR–Cas surveillance complex by AcrIF4, AcrIF7 and AcrIF14” (Nucleic Acids Research, 2020)

B1: Cas7f subunit of the Csy complex (natural protein, Pseudomonas aeruginosa)
chain: MSKPILSTASVLAFERKLDPSDALMSAGAWAQRDASQEWPAVTVREKSVRGTISNRLKTKDRDPAKLDASIQSPNLQTVDVANLPSDADTLKVRFTLRVLGGAGTPSACNDAAYRDKLLQTVATYVNDQGFAELARRYAHNLANARFLWRNRVGAEAVEVRINHIRQGEVARAWRFDALAIGLRDFKADAELDALAELIASGLSGSGHVLLEVVAFARIGDGQEVFPSQELILDKGDKKGQKSKTLYSVRDAAAIHSQKIGNALRTIDTWYPDEDGLGPIAVEPYGSVTSQGKAYRQPKQKLDFYTLLDNWVLRDEAPAVEQQHYVIANLIRGGVFGEAEEK
notes: Cas7f (Csy3) of Pseudomonas aeruginosa PA14; Stood in the assay as a subunit (six copies) of the whole Csy complex; It may carry the His tag of the complex (surmise); also called Cas7.1f-Cas7.6f; Cas7.4f; source: E. coli BL21 (DE3), co-expressed and purified as part of the Csy complex (HisTrap HP, HiTrap Q, Superdex 200)

Key:
[1] = target: type I-F CRISPR-Cas surveillance complex (the Csy complex) from Pseudomonas aeruginosa PA14 (Pseudomonas aeruginosa) (UniProt Q02ML9); assay: cryo-EM structure; Csy incubated with AcrIF protein at molar ratio 1:10 for 1 h on ice, SEC in 20 mM HEPES pH 7.5, 100 mM KCl, 5% glycerol, 1 mM TCEP; 0.5 mg/ml on UltrAuFoil grids, Titan Krios 300 kV
[2] = target: the molecule itself; assay: as above

Sequence of type I-F CRISPR-Cas surveillance complex (the Csy complex) from Pseudomonas aeruginosa PA14 (Pseudomonas aeruginosa) (Q02ML9 whole entry, chain 1 of 3): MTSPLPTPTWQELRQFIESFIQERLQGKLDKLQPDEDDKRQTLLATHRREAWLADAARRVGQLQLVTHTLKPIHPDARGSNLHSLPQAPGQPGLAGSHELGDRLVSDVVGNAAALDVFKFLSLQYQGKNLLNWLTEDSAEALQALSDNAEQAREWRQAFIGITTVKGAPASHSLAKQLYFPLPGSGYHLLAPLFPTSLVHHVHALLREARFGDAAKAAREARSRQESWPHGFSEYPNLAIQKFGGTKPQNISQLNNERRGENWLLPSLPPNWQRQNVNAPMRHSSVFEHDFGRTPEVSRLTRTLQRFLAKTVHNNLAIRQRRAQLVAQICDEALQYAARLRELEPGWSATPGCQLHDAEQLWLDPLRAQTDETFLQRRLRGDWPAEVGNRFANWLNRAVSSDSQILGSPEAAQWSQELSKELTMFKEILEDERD
Sequence of type I-F CRISPR-Cas surveillance complex (the Csy complex) from Pseudomonas aeruginosa PA14 (Pseudomonas aeruginosa) (Q02MM0 whole entry, chain 2 of 3, further chain): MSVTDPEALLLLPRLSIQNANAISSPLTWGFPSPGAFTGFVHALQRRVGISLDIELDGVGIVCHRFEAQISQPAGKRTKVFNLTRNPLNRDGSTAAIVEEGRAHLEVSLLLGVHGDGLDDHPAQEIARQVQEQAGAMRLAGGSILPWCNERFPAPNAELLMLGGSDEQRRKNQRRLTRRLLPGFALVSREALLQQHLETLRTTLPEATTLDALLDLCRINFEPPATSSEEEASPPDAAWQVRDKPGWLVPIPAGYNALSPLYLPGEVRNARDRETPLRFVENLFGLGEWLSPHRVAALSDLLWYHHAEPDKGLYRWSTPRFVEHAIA
Sequence of type I-F CRISPR-Cas surveillance complex (the Csy complex) from Pseudomonas aeruginosa PA14 (Pseudomonas aeruginosa) (Q02MM2 whole entry, chain 4 of 3, further chain): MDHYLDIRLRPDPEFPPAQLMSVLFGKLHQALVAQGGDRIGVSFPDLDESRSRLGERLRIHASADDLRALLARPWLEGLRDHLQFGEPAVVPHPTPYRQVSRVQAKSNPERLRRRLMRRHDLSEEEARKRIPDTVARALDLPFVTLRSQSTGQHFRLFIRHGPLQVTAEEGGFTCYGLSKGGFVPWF

| Molecule | stoichiometry N [1] | stoichiometry N [2] |
| --- | --- | --- |
| AcrIF14 (natural protein) | 2 |  |
| B1 |  | 6 |
